In paper doi:10.1101/2020.07.03.182295 (bioRxiv, 2020):

Target: the molecule itself
Assay: SEC

B1: R54C αA-crystallin (recombinant human) (natural protein)
chain: MDVTIQHPWFKRTLGPFYPSRLFDQFFGEGLFEYDLLPFLSSTISPYYRQSLFCTVLDSGISEVRSDRDKFVIFLDVKHFSPEDLTVKVQDDFVEIHGKHNERQDDHGYISREFHRRYRLPSNVDQSALSCSLSADGMLTFCGPKIQTGLDATHAERAIPVSREEKPTSAPSS
binding result: binds
